The target in test [1] is T1, Ba/F3 cells expressing human wildtype FLT3 (Homo sapiens, UniProt P36888).
T1 construct: expressed in transfected cells; host or cells: Ba/F3 cells, retrovirally transduced with MSCV-IRES-YFP (pMIY) vector
T1 sequence (P36888 27-993): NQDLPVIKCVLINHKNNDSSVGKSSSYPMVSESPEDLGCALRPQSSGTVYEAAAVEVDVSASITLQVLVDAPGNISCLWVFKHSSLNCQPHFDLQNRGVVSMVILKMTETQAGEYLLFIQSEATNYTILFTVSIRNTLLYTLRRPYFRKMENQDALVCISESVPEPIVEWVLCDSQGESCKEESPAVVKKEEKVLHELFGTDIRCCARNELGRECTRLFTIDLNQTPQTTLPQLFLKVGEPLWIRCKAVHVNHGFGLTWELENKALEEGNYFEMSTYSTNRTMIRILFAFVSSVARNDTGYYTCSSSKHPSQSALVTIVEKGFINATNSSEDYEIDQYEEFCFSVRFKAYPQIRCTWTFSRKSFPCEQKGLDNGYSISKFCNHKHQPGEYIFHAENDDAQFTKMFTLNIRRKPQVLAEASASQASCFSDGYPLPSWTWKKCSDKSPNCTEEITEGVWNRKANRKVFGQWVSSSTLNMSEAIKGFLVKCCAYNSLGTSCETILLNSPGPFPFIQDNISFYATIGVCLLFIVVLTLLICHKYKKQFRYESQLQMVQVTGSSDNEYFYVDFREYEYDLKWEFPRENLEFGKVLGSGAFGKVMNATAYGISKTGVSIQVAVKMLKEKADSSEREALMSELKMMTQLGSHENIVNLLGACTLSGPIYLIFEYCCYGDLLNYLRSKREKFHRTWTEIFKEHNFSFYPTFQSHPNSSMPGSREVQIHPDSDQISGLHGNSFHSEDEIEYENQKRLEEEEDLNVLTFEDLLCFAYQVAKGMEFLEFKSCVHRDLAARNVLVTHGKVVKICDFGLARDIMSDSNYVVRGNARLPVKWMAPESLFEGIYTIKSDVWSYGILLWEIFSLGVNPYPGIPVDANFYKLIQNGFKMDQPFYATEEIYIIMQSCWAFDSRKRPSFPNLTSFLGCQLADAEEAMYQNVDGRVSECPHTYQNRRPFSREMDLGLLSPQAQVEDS
As to the kind of experiment: Temperature induced internalization in Ba/F3-FLT3, flow cytometry. To be noted: 30 min at 37° C. compared to 4° C. In kind it is cell-based. An excerpt:
FIG. 1: Evaluation of epitope specificity and internalization capability of anti-FLT3 monoclonal antibodies. (A) Affinity of seven anti-FLT3 monoclonal antibody (mab) clones to recombinant human FLT3 measured in enzyme-linked immunosorbent assay (ELISA) normalized to the binding of the antibodies to BSA control. […] (B) Schematic FLT3 receptor. Black arrows indicate common mutations and blue arrows indicate the three identified epitopes of seven anti-FLT3 antibodies analyzed in linear epitope mapping by PEPperPRINT. Figure was created with BioRender.com. (C) Binding and temperature induced internalization of anti-FLT3 antibodies in Ba/F3 cells expressing human wildtype FLT3. Internalization was induced by incubation for 30 min at 37° C. (grey) compared to 4° C. (black). Remaining surface-bound antibody was detected in flow cytometry. MFI was normalized to control human IgG1 binding. MFI=mean fluorescence intensity. […] (D) Cell surface binding of 20D9 mab or control human IgG1 antibody to Ba/F3 cells stably expressing pMIY (Ba/F3-pMIY) empty vector (ev), human wildtype (hFLT3 wt) or ITD mutant human FLT3 (hFLT3ITD) was measured in flow cytometry. Mean±s.d. of n=3. (E) Temperature induced internalization of 4B12 mab in MOLM-13 (FLT3 positive) cells after 30 min incubation at 37° C. compared to 4° C. and HL-60 (FLT3 negative) after 37° C. incubation assessed in immunofluorescence staining. Red=FLT3 staining by 4B12, Green=membrane staining by Vybrant DiO, Blue=nuclear staining by DAPI. Scale bar 5 μm. Representative pictures are shown. (F) Cell surface binding of 20D9 mab or control hIgG1 antibody to Ba/F3-pMIY ev, hFLT3 wt, murine (mFLT3 wt) or cynomolgues monkey FLT3 (cynoFLT3 wt) was measured in flow cytometry. Mean±s.d. of n=3. (G) Cell surface binding of 20D9 mab or control hIgG1 antibody to Ba/F3-PMIY ev, hFLT3 wt or epitope mutant FLT3 (hFLT3/S50P/P54R) measured in flow cytometry. Mean±s.d. of n=3. (H) Cell surface binding of 20D9 mab or control hIgG1 antibody to Ba/F3-PMIY ev, hFLT3 wt or human CD64 (hCD64) measured in flow cytometry. Mean±s.d. of n=3. […]
For orientation: A flow cytometer gives signals particle by particle.

A further test concerns the target T2, recombinant human FLT3 (Homo sapiens, UniProt P36888).
T2 construct: purchased Sino Biological 10445-H08H
T2 sequence (P36888 27-541 limits assumed): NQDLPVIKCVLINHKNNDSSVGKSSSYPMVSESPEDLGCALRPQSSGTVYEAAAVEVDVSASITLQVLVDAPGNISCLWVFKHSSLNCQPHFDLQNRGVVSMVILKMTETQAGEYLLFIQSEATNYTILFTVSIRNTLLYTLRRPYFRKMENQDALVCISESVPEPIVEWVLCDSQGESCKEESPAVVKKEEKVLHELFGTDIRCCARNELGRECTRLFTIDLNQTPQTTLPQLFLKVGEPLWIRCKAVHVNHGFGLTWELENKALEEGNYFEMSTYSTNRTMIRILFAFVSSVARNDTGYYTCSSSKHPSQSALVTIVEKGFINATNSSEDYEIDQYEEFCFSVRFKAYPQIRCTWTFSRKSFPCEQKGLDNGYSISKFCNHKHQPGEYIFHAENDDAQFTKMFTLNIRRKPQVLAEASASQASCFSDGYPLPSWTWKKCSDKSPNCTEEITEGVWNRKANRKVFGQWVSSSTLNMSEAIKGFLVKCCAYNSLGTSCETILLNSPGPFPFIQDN
As to the kind of experiment: ELISA affinity to recombinant human FLT3. In kind it is binding. The following applies: chimeric Ab clones. An excerpt:
FIG. 1: Evaluation of epitope specificity and internalization capability of anti-FLT3 monoclonal antibodies. (A) Affinity of seven anti-FLT3 monoclonal antibody (mab) clones to recombinant human FLT3 measured in enzyme-linked immunosorbent assay (ELISA) normalized to the binding of the antibodies to BSA control. […] (B) Schematic FLT3 receptor. Black arrows indicate common mutations and blue arrows indicate the three identified epitopes of seven anti-FLT3 antibodies analyzed in linear epitope mapping by PEPperPRINT. Figure was created with BioRender.com. (C) Binding and temperature induced internalization of anti-FLT3 antibodies in Ba/F3 cells expressing human wildtype FLT3. Internalization was induced by incubation for 30 min at 37° C. (grey) compared to 4° C. (black). Remaining surface-bound antibody was detected in flow cytometry. MFI was normalized to control human IgG1 binding. MFI=mean fluorescence intensity. […] (D) Cell surface binding of 20D9 mab or control human IgG1 antibody to Ba/F3 cells stably expressing pMIY (Ba/F3-pMIY) empty vector (ev), human wildtype (hFLT3 wt) or ITD mutant human FLT3 (hFLT3ITD) was measured in flow cytometry. Mean±s.d. of n=3. (E) Temperature induced internalization of 4B12 mab in MOLM-13 (FLT3 positive) cells after 30 min incubation at 37° C. compared to 4° C. and HL-60 (FLT3 negative) after 37° C. incubation assessed in immunofluorescence staining. Red=FLT3 staining by 4B12, Green=membrane staining by Vybrant DiO, Blue=nuclear staining by DAPI. Scale bar 5 μm. Representative pictures are shown. (F) Cell surface binding of 20D9 mab or control hIgG1 antibody to Ba/F3-pMIY ev, hFLT3 wt, murine (mFLT3 wt) or cynomolgues monkey FLT3 (cynoFLT3 wt) was measured in flow cytometry. Mean±s.d. of n=3. (G) Cell surface binding of 20D9 mab or control hIgG1 antibody to Ba/F3-PMIY ev, hFLT3 wt or epitope mutant FLT3 (hFLT3/S50P/P54R) measured in flow cytometry. Mean±s.d. of n=3. (H) Cell surface binding of 20D9 mab or control hIgG1 antibody to Ba/F3-PMIY ev, hFLT3 wt or human CD64 (hCD64) measured in flow cytometry. Mean±s.d. of n=3.
Maxisorp plates were coated with human recombinant FLT3 protein (10445-H08H, Sino Biological). Chimeric (20D9) or humanized anti-FLT3 monoclonal antibodies (in house) and secondary alkaline phosphatase conjugated rabbit anti-human IgG antibody (309-055-008, Jackson Immunoresearch) were used. For detection, Attophos Fluorescent Substrate System (S1000, Promega) was applied. The fluorescence was read with excitation of 405 nm and emission at 500-550 nm. The calculation of the dissociation constant KD was performed using GraphPad Prism version 9.4.0.
On the technique in general: In an ELISA, binding on a coated surface is turned into a signal by an enzyme label.

Test [2] concerns MOLM-13 (FLT3 positive) cells. As to the kind of experiment: Temperature induced internalization in MOLM-13, flow cytometry. In kind it is cell-based, human. The following applies: 30 min at 37° C. compared to 4° C. The protocol: For antibody binding studies, cells were stained on ice with primary mouse, rat or human anti-FLT3 antibodies (in house) and secondary antibody Goat F(ab′)2 Anti-Human Ig-PE (2012-09), Goat Anti-Mouse IgG (H+L)-PE (1032-09) or Goat Anti-Rat IgG (H+L)-PE (3052-09) purchased from Southern Biotech. For internalization experiments, cells incubated with anti-FLT3 antibodies were washed and incubated for 30 min at 4° C. or 37° C. followed by staining with secondary antibody.

B1: 2F12: chimeric anti-FLT3 antibody from rat; VH SEQ ID NO: 7, VL SEQ ID NO: 8 (antibody, V domains shown)
VH: EVKLEESGGGLVQPGGSMKLSCVASGFTFSNYWMNWVRQSPEKGLEWVAQIRLKSDNYATHYAESVKGRFTISRDDSKDSVYLQMNNLRAEDTGIYYCAVSLARSDYWGQGTTLTVSSA
VL: DVVMTQSPPSLSASLGDKVTITCQASQNINKYIAWYQQKPGKAPRLLIRYTSTLESGTPSRFSGSGSGRDFSFSISNVESEDIASYYCLQYVNLPRTFGGGTKLELKR
modifications: Clone 2F12, heavy chain variable region without a signal seqeunce; Clone 2F12, light chain variable region without a signal seqeunce
For the molecule B1, the “Internalization in Ba/F3-FLT3” value in test [1] turned out to be 26%. For the same molecule, the “Affinity Kd” value in the test with recombinant human FLT3 turned out to be 3.981 µg/mL. Also, in test [2], the “Internalization in MOLM-13” value came out at 12%.

B2: 19H5: chimeric anti-FLT3 antibody from rat; VH SEQ ID NO: 17, VL SEQ ID NO: 18 (antibody, V domains shown)
VH: MVQPSQTLSLTCTVSGFSLTSYNVNWVRQPPGKGLEWIGAMWRGGGTDYNPALKSRLSISRDTSKSQVFLKMNRLQTEDTAIYFCTRGFGDYWGQGVMVTVSSA
VL: DVQMTQSPSSMSASLGDRVTFTCQASQDIGNNLIYFQQKPGKSPRRMICCATNLAHGVPSRFSGSRSGSDYSLTLVSLESEDVADYHCLQYEHYPRTFGGGTKLELKR
modifications: Clone 19H5, heavy chain variable region without a signal seqeunce; Clone 19H5, light chain variable region without a signal seqeunce
Take B2: the “Affinity Kd” value with recombinant human FLT3 was 0.1339 µg/mL.

These data come from patent US20250049939A1, “NOVEL FLT3 ANTIBODIES AND ANTIBODY-DRUG-CONJUGATES BASED THEREON, THERAPEUTIC METHODS AND USES THEREOF IN COMBINATION WITH TYROSINE KINASE INHIBITORS” (TUBULIS GmbH, priority 2021, published 2025).
